Laboratory results from patent publication EP4417623A1 (Fundació Institut de Recerca Contra la Leucèmia Josep …, dated 2024).
Where no end group is shown, it is not given here.

Legend:
[1] = biological target: T1, Peptide 3: SSMEDYVNFN-C (not fully specified; printed as SSMEDYVNFN-C); assay: peptide ELISA titration, OD450
T1 peptide: SSMEDYVNFNC

[2] = biological target: T2, Peptide 4: SMEDYVNFNF-C (not fully specified; printed as SMEDYVNFNF-C); assay: peptide ELISA titration, OD450
T2 peptide: SMEDYVNFNFC

[3] = biological target: T3, CCR9 peptide #1 MADDYGSESTSSMEDYVNFNF-C (human, extra C-terminal Cys for BSA conjugation (coated as non-conjugated or BSA-conjugated peptide)); assay: ELISA screening against the immunisation peptide
T3 construct: This is the immunisation peptide; It was conjugated to BSA for the ELISA screenings; also called MADDY peptide; complete antigen peptide
T3 peptide: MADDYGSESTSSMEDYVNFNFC

Measured: binding result

B1: anti-CCR9 antibody clone 115 (antibody, V domains shown)
VH: QVQLKQSGPELVKPGTSVRVSCTASGYSFTDYIIYWVKQSHGRSLEWIGYIDPNNYNTRYSQKFKGKATLTVDKSSTSAFMHLNSLTSDDSAVYYCARDVYWGQGTTLTVSS
VL: DVVMTQTPLSLTVSLGDQASISCRSSQSLVHSNGKTYLQWYLQKPGQSPKLLIYKVSNRFSGVPDRFSGSGSGTDFTLKISRVEAEDLGVYFCAQSTHVWTFGGGTKLEIKR
notes: Murine monoclonal antibody, isotype IgG1; It was tested as hybridoma supernatant in the FACS screening and as Protein A/G purified antibody in the ELISA
binds: all assays above
